Results as given in US20230002481A1 (Chugai, published 2023).

T1: recombinant human C1r2s2 tetramer (human, UniProt P09871 16-688; P00736 18-705)
T1 construct: Heterotetramer of two C1r and two C1s chains, co-expressed in FreeStyle293-F cells; also called human C1r2s2s
T1 chain 1: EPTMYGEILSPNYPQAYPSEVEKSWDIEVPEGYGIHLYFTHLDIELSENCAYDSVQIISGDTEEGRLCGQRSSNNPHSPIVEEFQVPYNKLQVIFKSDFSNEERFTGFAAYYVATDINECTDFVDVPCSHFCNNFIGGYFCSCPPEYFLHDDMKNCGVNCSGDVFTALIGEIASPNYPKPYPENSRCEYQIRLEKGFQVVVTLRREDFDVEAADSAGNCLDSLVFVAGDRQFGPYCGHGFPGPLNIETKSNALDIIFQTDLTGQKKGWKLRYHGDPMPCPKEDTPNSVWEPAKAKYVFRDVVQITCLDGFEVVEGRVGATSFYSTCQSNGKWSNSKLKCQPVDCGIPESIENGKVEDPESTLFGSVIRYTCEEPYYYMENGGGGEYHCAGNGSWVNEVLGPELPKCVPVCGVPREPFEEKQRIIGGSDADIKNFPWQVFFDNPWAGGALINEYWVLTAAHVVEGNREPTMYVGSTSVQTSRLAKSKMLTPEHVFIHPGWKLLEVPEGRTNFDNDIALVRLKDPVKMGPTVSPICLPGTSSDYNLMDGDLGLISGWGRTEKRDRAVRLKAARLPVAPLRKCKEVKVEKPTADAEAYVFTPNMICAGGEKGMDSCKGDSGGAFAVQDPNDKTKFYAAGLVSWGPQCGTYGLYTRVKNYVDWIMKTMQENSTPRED
T1 chain 2: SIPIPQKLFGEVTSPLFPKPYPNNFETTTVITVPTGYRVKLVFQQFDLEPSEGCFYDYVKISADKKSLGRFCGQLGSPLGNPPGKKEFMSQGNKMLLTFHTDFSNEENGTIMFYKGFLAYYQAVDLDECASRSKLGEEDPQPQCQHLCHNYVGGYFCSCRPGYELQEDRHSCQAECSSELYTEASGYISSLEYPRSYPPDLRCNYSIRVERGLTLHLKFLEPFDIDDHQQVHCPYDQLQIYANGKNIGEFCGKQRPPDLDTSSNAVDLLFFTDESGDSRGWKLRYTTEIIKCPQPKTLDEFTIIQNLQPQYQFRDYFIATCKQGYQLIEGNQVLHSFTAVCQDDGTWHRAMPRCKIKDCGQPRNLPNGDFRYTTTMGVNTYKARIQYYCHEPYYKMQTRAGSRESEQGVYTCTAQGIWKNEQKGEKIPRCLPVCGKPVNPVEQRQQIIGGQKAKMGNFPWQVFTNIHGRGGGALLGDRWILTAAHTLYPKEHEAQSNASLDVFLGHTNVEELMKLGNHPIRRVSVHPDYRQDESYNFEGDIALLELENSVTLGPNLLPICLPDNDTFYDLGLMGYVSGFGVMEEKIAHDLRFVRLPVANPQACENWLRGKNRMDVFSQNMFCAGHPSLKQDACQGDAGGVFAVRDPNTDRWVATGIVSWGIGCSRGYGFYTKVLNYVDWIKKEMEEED

B1: COS0098bb (antibody, V domains shown)
VH: QSVEESGGRLVTPGTPLTLTCTVSGFSLTKYTVSWVRQAPGKGLEWIGIINTGGSAYYATWAKGRFTFSKTSTTVDLQITSPTTEDTATYFCARGNGDTDYTNLWGPGTLVTVSS
VL: QVLTQTPSSVSEPVGGTVTINCQASENIYSALAWYQQKPGQPPKLLIYGASNLESGVPSRFKGSGSGTQFTLTISDLECADAATYYCQQYYFTSSTFGGGTKVEIK
notes: Anti-C1s rabbit antibody, parent of COS0098pHv1; the antibody was captured by ProA/G; also called anti-C1s antibody COS0098bb
B2: COS0098pHv1 (antibody, V domains shown)
VH: QVQLVQSGAEVKKPGSSVKVSCKASGHTFSKYTVSWIRQPPGKGLEWIGIINTGGSAYPATWAKGRVTITADESTSTAYMELSSLRSEDTAVYYCARGAGDTDYTNLWGQGTLVTVSS
VL: DIQMTQSPSSLSASVGDRVTITCQASENIYSALAWYQQKPGQPPKLLIYGASQLESGVPSRFSGSGSGTDFTLTISSLQPEDFATYYCQQYYFTSHTFGQGTKVEIK
notes: Humanized, optimized pH-dependent variant of COS0098bb

How the values were obtained:
[1] = molecular target: T1, recombinant human C1r2s2 tetramer; assay: SPR (Biacore), pH5.8*: dissociation at pH5.8 after association and dissociation at pH7.4, 37 C, Scrubber fit
Procedure: (§1) The kinetic parameters of anti-C1s antibodies against recombinant human C1s (as described in PCT/JP2018/042054), human C1r2s2, and cyno C1r2s2 His/Flag (also referred as cyno C1r2s2 in the Table and Figures) were assessed at pH7.4 and pH5.8, at 37 degrees C. using BIACORE (registered trademark) T200 instrument (GE Healthcare) or BIACORE 4000 (GE Healthcare). ProAG (Pierce) was immobilized onto a CM4 sensorchip using amine coupling kit (GE Healthcare) according to the recommended settings by GE Healthcare. Antibodies and analytes were diluted into the respective running buffers, ACES pH7.4 and pH5.8 (20 mM ACES, 150 mM NaCl, 1.2 mM CaCl₂, 1 mg/ml BSA, 1 mg/ml CMD, 0.05% Tween 20, 0.005 w/v % NaN₃). Each antibody was captured onto the sensor surface by ProA/G. Antibody capture levels were typically 100-200 resonance units (RU). Then, recombinant C1s was injected at concentrations of 25 and 50 nM followed by dissociation at pH7.4 and pH5.8. The surface was regenerated using 10 mM Glycine-HCl, pH1.5. Kinetic parameters at neutral pH conditions and acidic conditions were determined by fitting the sensorgrams with 1:1 binding model using BIACORE (registered trademark) T200 Evaluation software, version 2.0 (GE Healthcare) or BIACORE 4000 Evaluation software. The dissociation rate at pH5.8 (after dissociation at pH7.4, indicated as pH5.8* in TABLE 2) was determined by processing and fitting data using Scrubber 2.0 (BioLogic Software) curve fitting software. The association rate (ka), dissociation rate (kd), binding affinity (KD) at pH7.4 and pH5.8 condition, and dissociation rate (kd) at pH5.8* condition of the antibodies are listed in TABLE 2. Some kinetic parameters of COS0098pHv1 in acidic condition were not correctly calculated because of its weak binding response.
(§2) Also, to observe the cross-reactivity of anti-C1s antibodies against human C1r2s2 and cyno C1r2s2 (cyno C1r2s2 His/Flag), BIACORE (registered trademark) kinetics analysis was performed.

[2] = molecular target: T1, recombinant human C1r2s2 tetramer; assay: SPR (Biacore), antibody captured on ProA/G, antigen as analyte, 37 C, pH7.4, 1.2 mM CaCl2
Procedure: as §1, §2

| Binder | koff [1] [s⁻¹] | Kd [2] [nM] | koff [2] [s⁻¹] | kon [2] [M⁻¹ s⁻¹] |
| --- | --- | --- | --- | --- |
| B1 | 0.000909 |  |  |  |
| B2 | 0.107 | 4 | 0.00206 | 514000 |
